The target in experiment [1] is T1, Recombinant hamster GRP78 protein (hamster, UniProt G3I8R9 19-654, RED-tris-NTA dye held on the His-tag). The experiment in a line: MST.
For experiment [2], the target named is T1, Recombinant hamster GRP78 protein. The experiment in a line: MST; 200 uM CaCl2.
For experiment [3] the target is unchanged. The experiment in a line: MST; 1 uM CaCl2.
Experiment [4] deals with Substrate-binding domain (SBD) of GRP78 (RED-tris-NTA dye held on the His-tag). The experiment in a line: MST.
In experiment [5] the target is T1, Recombinant hamster GRP78 protein. In words: MST; 100 uM CaCl2.

Positions count from the first letter of the chain named. Numbers in names are those of the source.

T1 sequence (G3I8R9 19-654): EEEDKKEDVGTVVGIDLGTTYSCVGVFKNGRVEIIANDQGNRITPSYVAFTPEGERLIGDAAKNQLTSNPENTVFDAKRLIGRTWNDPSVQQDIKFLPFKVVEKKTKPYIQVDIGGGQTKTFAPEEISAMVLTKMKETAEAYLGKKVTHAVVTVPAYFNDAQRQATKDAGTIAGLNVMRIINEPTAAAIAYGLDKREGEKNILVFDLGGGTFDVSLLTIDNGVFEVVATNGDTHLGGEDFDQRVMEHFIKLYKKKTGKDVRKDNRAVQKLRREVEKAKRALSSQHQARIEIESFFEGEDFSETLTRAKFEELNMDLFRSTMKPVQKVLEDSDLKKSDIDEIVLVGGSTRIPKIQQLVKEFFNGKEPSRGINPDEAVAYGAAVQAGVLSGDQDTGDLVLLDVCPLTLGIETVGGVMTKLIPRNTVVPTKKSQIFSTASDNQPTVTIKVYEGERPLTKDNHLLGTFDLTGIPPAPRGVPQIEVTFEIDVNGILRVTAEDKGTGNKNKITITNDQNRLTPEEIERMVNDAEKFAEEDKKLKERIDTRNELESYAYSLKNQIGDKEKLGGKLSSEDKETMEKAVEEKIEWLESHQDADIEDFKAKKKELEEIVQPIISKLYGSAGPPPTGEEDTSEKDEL
Sequence of Substrate-binding domain (SBD) of GRP78 (RED-tris-NTA dye held on the His-tag) (chain, as listed by the source): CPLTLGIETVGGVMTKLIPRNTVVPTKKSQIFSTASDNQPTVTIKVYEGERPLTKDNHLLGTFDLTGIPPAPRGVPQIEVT

B1: Recombinant human MANF protein (natural protein)
chain: LRPGDCEVCISYLGRFYQDLKDRDVTFSPATIENELIKFCREARGKENRLCYYIGATDDAATKIINEVSKPLAHHIPVEKICEKLKKKDSQICELKYDKQIDLSTVDLKKLRVKELKKILDDWGETCKGCAEKSDYIRKINELMPKYAPKAASARTDL
With B1, the dissociation constant Kd (as a rule, the free concentration of one partner at which half of the binding sites on the other are occupied at equilibrium, for simple one-to-one binding) was determined as 216 nM in experiment [1]; 430 nM in experiment [2]; 570 nM in experiment [3]; 1400 nM in experiment [4]; 500 nM in experiment [5].

B2: Recombinant MANF E153A mutant protein (natural protein)
chain: B1 chain with E132A
For B2, in experiment [1], the equilibrium dissociation constant (Kd) is 269 nM.

Source of the values: PMC7949057 (2021).
